Among the data in publication PMC9544093 are Ka values, retold here.

Experiment [1] concerns the target Bovine γ-globulin (Sigma-Aldrich G5009), a polyvalent antibody mixture of ~80 % IgG, ~10 % IgM and <10 % IgA (bovine). The experiment can be described thus: fluorescence polarisation; steady-state fluorescence anisotropy in a high-pressure cell; 0.43 uM dansyl-labelled γ-globulin titrated with 0-250 uM unlabelled γ-globulin; neat buffer; 20 °C; p = 500 bar; fitted to a 1:1 (monomer to dimer) model. Background: In fluorescence polarisation assays a small probe gives low polarisation when free and higher when bound to something large.

For experiment [2] the target is unchanged. The experiment can be described thus: fluorescence polarisation; steady-state fluorescence anisotropy in a high-pressure cell; 0.43 uM dansyl-labelled γ-globulin titrated with 0-250 uM unlabelled γ-globulin; 0.5 M TMAO; 20 °C; p = 500 bar; fitted to a 1:1 (monomer to dimer) model.
Experiment [3] shares this target. Nature of the experiment: fluorescence polarisation; steady-state fluorescence anisotropy; 0.43 uM dansyl-labelled γ-globulin titrated with 0-250 uM unlabelled γ-globulin; neat buffer; 20 °C; pressure not named for this value (ambient implied); fitted to a 1:1 (monomer to dimer) model.
The target is the same in experiment [4]. Nature of the experiment: fluorescence polarisation; steady-state fluorescence anisotropy; 0.43 uM dansyl-labelled γ-globulin titrated with 0-250 uM unlabelled γ-globulin; 0.5 M TMAO; 20 °C; pressure not named for this value (ambient implied); fitted to a 1:1 (monomer to dimer) model.

Regarding “Bovine γ-globulin (Sigma-Aldrich G5009), a polyvalent antibody mixture of ~80 % IgG, ~10 % IgM and <10 % IgA”, the Ka turned out to be 1530 M⁻¹ in experiment [1], 997 M⁻¹ in experiment [2], 882 M⁻¹ in experiment [3] and 592 M⁻¹ in experiment [4].
